Data published in patent US20050037394.

What was measured:
Test in all cases: filter
IL-23 (Homo sapiens) = IL-23 (Homo sapiens) (UniProt Q9NPF7+P29460); conditions: approximately 500 nM or higher, DPBS, 0.1 mg/ml tRNA
IgE (Homo sapiens) = conditions: 2'-OMe C,U; 2'-OH A,G; approximately 500 nM or higher
[1] = target: Complement C5 full length (Homo sapiens) (UniProt P01031+P01031); conditions: dRmY: deoxy A,G, 2'-OMe C,U, plateau about 10%
IFN-gamma (Homo sapiens) = target: T1, IFN-gamma (Homo sapiens) (UniProt P01579); conditions: dRmY: deoxy A,G, 2'-OMe C,U
T1 sequence: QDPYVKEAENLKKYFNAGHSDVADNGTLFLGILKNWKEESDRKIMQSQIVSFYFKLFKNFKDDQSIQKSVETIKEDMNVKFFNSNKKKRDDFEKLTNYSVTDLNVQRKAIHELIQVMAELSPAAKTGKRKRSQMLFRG

PDGF-BB (Homo sapiens) = PDGF-BB (Homo sapiens) (UniProt P01127); conditions: 2'-OMe A,C,U; 2'-OH G; approximately 950 nM or higher; naive pool also binds PDGF-BB
PDGF-BB (Homo sapiens), sequence (P01127 82-190): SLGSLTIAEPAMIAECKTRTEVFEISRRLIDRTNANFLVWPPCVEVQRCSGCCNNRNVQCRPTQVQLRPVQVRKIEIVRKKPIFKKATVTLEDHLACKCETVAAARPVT

[2] = high salt selection (250 mM NaCl)

IL-23 (Homo sapiens), sequence (Q9NPF7 20-189, chain 1 of 2): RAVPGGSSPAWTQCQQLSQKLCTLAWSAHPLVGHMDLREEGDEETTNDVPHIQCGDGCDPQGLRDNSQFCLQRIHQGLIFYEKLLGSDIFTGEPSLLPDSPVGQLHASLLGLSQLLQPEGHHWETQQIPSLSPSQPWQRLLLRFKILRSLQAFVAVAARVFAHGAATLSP
IL-23 (Homo sapiens), sequence (P29460 23-328, chain 2 of 2): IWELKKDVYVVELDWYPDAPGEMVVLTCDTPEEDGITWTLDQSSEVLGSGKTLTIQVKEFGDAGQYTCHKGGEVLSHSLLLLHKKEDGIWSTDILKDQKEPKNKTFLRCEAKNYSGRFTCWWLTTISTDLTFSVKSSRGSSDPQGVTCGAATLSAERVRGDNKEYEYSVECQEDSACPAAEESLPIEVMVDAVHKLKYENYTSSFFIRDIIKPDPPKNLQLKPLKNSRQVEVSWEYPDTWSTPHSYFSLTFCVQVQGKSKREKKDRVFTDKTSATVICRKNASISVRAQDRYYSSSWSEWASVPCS
Complement C5 full length (Homo sapiens), sequence (P01031 19-673, chain 1 of 2): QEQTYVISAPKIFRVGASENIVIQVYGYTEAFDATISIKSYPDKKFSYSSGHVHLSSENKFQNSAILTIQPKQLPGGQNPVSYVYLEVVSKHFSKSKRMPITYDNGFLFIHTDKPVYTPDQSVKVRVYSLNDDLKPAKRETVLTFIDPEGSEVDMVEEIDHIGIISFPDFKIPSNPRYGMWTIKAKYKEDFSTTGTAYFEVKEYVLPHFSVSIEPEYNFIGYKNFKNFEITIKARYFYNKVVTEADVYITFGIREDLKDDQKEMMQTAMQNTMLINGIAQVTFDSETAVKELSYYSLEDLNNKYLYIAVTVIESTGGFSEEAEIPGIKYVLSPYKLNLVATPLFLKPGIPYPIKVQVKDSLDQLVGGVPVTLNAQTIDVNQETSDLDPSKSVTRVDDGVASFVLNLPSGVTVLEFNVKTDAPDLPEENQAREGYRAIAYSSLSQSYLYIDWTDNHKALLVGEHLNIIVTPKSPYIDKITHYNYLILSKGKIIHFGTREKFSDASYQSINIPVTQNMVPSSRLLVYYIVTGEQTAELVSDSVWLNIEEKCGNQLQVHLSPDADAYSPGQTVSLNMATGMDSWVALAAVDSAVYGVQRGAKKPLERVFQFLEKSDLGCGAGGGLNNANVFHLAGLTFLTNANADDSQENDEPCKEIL
Complement C5 full length (Homo sapiens), sequence (P01031 678-1676, chain 2 of 2): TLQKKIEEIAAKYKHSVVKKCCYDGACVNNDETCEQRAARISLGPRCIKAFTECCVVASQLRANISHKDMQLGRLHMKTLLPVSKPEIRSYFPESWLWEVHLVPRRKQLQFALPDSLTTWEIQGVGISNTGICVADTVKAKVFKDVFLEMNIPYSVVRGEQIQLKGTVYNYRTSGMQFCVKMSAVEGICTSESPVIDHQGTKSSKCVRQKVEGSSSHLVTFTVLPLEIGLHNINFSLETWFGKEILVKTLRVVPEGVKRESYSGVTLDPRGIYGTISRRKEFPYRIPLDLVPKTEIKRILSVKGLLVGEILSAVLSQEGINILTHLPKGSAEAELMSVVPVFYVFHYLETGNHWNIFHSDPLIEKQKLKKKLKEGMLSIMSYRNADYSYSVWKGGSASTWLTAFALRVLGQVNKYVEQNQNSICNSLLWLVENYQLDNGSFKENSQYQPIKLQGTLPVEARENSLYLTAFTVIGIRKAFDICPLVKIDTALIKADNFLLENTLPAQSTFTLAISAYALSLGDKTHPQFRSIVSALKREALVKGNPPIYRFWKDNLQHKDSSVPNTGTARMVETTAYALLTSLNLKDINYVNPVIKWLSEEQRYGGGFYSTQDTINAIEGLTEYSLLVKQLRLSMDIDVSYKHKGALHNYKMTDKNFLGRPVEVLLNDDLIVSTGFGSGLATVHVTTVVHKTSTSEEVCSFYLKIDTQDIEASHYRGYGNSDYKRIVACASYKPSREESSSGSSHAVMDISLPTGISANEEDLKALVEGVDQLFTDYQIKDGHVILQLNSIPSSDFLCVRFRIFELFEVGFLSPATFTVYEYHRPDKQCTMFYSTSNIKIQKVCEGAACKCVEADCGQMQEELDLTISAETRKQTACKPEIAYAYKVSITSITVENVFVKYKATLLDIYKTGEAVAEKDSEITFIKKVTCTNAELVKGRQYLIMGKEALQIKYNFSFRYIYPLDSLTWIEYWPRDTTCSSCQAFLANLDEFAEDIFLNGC

GGGAGAGGAGAGAACGUUCUACNNNNNNNNNNNNNNNNNNNNNNNNNNNNNNCGCUGUCGAUCGAUCGAUCGAUG [IL-23 rRmY round 9 pool]
Kd (IL-23 (Homo sapiens); 2'-OMe C,U, 2'-OH A,G): > 500 nM

GGGAGAGGAGAGAACGUUCUACNNNNNNNNNNNNNNNNNNNNNNNNNNNNNNCGCUGUCGAUCGAUCGAUCGAUG [IgE rRmY round 6 pool]
Kd (IgE (Homo sapiens)): > 500 nM

GGGAGAGGAGAGAACGUUCUACNNNNNNNNNNNNNNNNNNNNNNNNNNNNNNGGUCGAUCGAUCGAUCAUCGAUG [C5 full-length selection round 10 dRmY pool]
Kd ([1]; 1x DPBS, tRNA and salmon sperm DNA competitor): 115 nM

GGGAGAGGAGAGAACGUUCUACNNNNNNNNNNNNNNNNNNNNNNNNNNNNNNGGUCGAUCGAUCGAUCAUCGAUG [C5 partially trypsinized selection round 10 dRmY pool]
Kd ([1]; selection on partially trypsinized C5): 150 nM

GGGAGAGGAGAGAACGUUCUACNNNNNNNNNNNNNNNNNNNNNNNNNNNNNNGGUCGAUCGAUCGAUCAUCGAUG [IFN-gamma round 10 dRmY pool, high salt]
Kd (IFN-gamma (Homo sapiens); [2]): 675 nM

GGGAGAGGAGAGAACGUUCUACNNNNNNNNNNNNNNNNNNNNNNNNNNNNNNGGUCGAUCGAUCGAUCAUCGAUG [IFN-gamma round 10 dRmY pool, normal stringency]
Kd (IFN-gamma (Homo sapiens); 1x DPBS, tRNA, ssDNA, BSA): 605 nM

GGGAGAGGAGAGAACGUUCUACNNNNNNNNNNNNNNNNNNNNNNNNNNNNNNGGUCGAUCGAUCGAUCAUCGAUG [IFN-gamma round 12 dRmY pool, high salt]
Kd (IFN-gamma (Homo sapiens); [2]): 590 nM

GGGAGAGGAGAGAACGUUCUACNNNNNNNNNNNNNNNNNNNNNNNNNNNNNNGGUCGAUCGAUCGAUCAUCGAUG [IFN-gamma round 12 dRmY pool, normal stringency]
Kd (IFN-gamma (Homo sapiens); 1x DPBS, tRNA, ssDNA, BSA): 445 nM

GGGNGNGGNGNGNNCGUUCUNCNNNNNNNNNNNNNNNNNNNNNNNNNNNNNNCGCUGUCGNUCGNUCGNUCGNUG [IL-23 rGmH round 10 pool]
Kd (IL-23 (Homo sapiens); 2'-OMe A,C,U, 2'-OH G): > 500 nM

GGGNGNGGNGNGNNCGUUCUNCNNNNNNNNNNNNNNNNNNNNNNNNNNNNNNCGCUGUCGNUCGNUCGNUCGNUG [PDGF-BB rGmH round 10 pool]
Kd (PDGF-BB (Homo sapiens)): > 950 nM
